B1: Rab-interacting lysosomal protein (Homo sapiens), Q96NA2 (parent)
chain: MEPRRAAPGVPGWGSREAAGSASAAELVYHLAGALGTELQDLARRFGPEAAAGLVPLVVRALELLEQAAVGPAPDSLQVSAQPAEQELRRLREENERLRRELRAGPQEERALLRQLKEVTDRQRDELRAHNRDLRQRGQETEALQEQLQRLLLVNAELRHKLAAMQTQLRAAQDRERERQQPGEAATPQAKERARGQAGRPGHQHGQEPEWATAGAGAPGNPEDPAEAAQQLGRPSEAGQCRFSREEFEQILQERNELKAKVFLLKEELAYFQRELLTDHRVPGLLLEAMKVAVRKQRKKIKAKMLGTPEEAESSEDEAGPWILLSDDKGDHPPPPESKIQSFFGLWYRGKAESSEDETSSPAPSKLGGEEEAQPQSPAPDPPCSALHEHLCLGASAAPEA

Variants of: B1
Settings: with rab7a_human RAB7A

| Variant | effect of a mutation on the interaction |
| --- | --- |
| MEPRRAAPGVPGWGSREAAGSASAAELVYHLAGALGTELQDLARRFGPEAAAGLVPLVVRALELLEQAAVGPAPDSLQVSAQPAEQELRRLREENERLRRELRAGPQEERALLRQLKEVTDRQRDELRAHNRDLRQRGQETEALQEQLQRLLLVNAELRHKLAAMQTQLRAAQDRERERQQPGEAATPQAKERARGQAGRPGHQHGQEPEWATAGAGAPGNPEDPAEAAQQLGRPSEAGQCRFSREEFEQILQEANELKAKVFLLKEELAYFQRELLTDHRVPGLLLEAMKVAVRKQRKKIKAKMLGTPEEAESSEDEAGPWILLSDDKGDHPPPPESKIQSFFGLWYRGKAESSEDETSSPAPSKLGGEEEAQPQSPAPDPPCSALHEHLCLGASAAPEA [R255A] | disrupting interaction strength |
| MEPRRAAPGVPGWGSREAAGSASAAELVYHLAGALGTELQDLARRFGPEAAAGLVPLVVRALELLEQAAVGPAPDSLQVSAQPAEQELRRLREENERLRRELRAGPQEERALLRQLKEVTDRQRDELRAHNRDLRQRGQETEALQEQLQRLLLVNAELRHKLAAMQTQLRAAQDRERERQQPGEAATPQAKERARGQAGRPGHQHGQEPEWATAGAGAPGNPEDPAEAAQQLGRPSEAGQCRFSREEFEQILQERNELKAKVFLLKEELAYFQRELLTDHRVPGLLLEAMKVAVRKQRKKIKAAMLGTPEEAESSEDEAGPWILLSDDKGDHPPPPESKIQSFFGLWYRGKAESSEDETSSPAPSKLGGEEEAQPQSPAPDPPCSALHEHLCLGASAAPEA [K304A] | disrupting interaction strength |
| MEPRRAAPGVPGWGSREAAGSASAAELVYHLAGALGTELQDLARRFGPEAAAGLVPLVVRALELLEQAAVGPAPDSLQVSAQPAEQELRRLREENERLRRELRAGPQEERALLRQLKEVTDRQRDELRAHNRDLRQRGQETEALQEQLQRLLLVNAELRHKLAAMQTQLRAAQDRERERQQPGEAATPQAKERARGQAGRPGHQHGQEPEWATAGAGAPGNPEDPAEAAQQLGRPSEAGQCRFSREEFEQIAQERNELKAKVFLLKEELAYFQRELLTDHRVPGLLLEAMKVAVRKQRKKIKAKMLGTPEEAESSEDEAGPWILLSDDKGDHPPPPESKIQSFFGLWYRGKAESSEDETSSPAPSKLGGEEEAQPQSPAPDPPCSALHEHLCLGASAAPEA [L252A] | disrupting interaction strength |
| MEPRRAAPGVPGWGSREAAGSASAAELVYHLAGALGTELQDLARRFGPEAAAGLVPLVVRALELLEQAAVGPAPDSLQVSAQPAEQELRRLREENERLRRELRAGPQEERALLRQLKEVTDRQRDELRAHNRDLRQRGQETEALQEQLQRLLLVNAELRHKLAAMQTQLRAAQDRERERQQPGEAATPQAKERARGQAGRPGHQHGQEPEWATAGAGAPGNPEDPAEAAQQLGRPSEAGQCRFSREEFEQILQERNELKAKVFLLKEELAYFQRELLTDHRVPGLLLEAMKVAVRKQRKKIKAKALGTPEEAESSEDEAGPWILLSDDKGDHPPPPESKIQSFFGLWYRGKAESSEDETSSPAPSKLGGEEEAQPQSPAPDPPCSALHEHLCLGASAAPEA [M305A] | disrupting interaction strength |

Second part, the variant after the results:

| effect of a mutation on the interaction | Variant |
| --- | --- |
| disrupting interaction strength | MEPRRAAPGVPGWGSREAAGSASAAELVYHLAGALGTELQDLARRFGPEAAAGLVPLVVRALELLEQAAVGPAPDSLQVSAQPAEQELRRLREENERLRRELRAGPQEERALLRQLKEVTDRQRDELRAHNRDLRQRGQETEALQEQLQRLLLVNAELRHKLAAMQTQLRAAQDRERERQQPGEAATPQAKERARGQAGRPGHQHGQEPEWATAGAGAPGNPEDPAEAAQQLGRPSEAGQCRFSREEFEQILQERNELKAKVFLLKEELAYFQRELLTDHRVPGLLLEAMKVAVRKQRKKIKAKMAGTPEEAESSEDEAGPWILLSDDKGDHPPPPESKIQSFFGLWYRGKAESSEDETSSPAPSKLGGEEEAQPQSPAPDPPCSALHEHLCLGASAAPEA [L306A] |
| disrupting interaction strength | MEPRRAAPGVPGWGSREAAGSASAAELVYHLAGALGTELQDLARRFGPEAAAGLVPLVVRALELLEQAAVGPAPDSLQVSAQPAEQELRRLREENERLRRELRAGPQEERALLRQLKEVTDRQRDELRAHNRDLRQRGQETEALQEQLQRLLLVNAELRHKLAAMQTQLRAAQDRERERQQPGEAATPQAKERARGQAGRPGHQHGQEPEWATAGAGAPGNPEDPAEAAQQLGRPSEAGQCRFSREEFEQILQERNEAKAKVFLLKEELAYFQRELLTDHRVPGLLLEAMKVAVRKQRKKIKAKMLGTPEEAESSEDEAGPWILLSDDKGDHPPPPESKIQSFFGLWYRGKAESSEDETSSPAPSKLGGEEEAQPQSPAPDPPCSALHEHLCLGASAAPEA [L258A] |
| disrupting interaction strength | MEPRRAAPGVPGWGSREAAGSASAAELVYHLAGALGTELQDLARRFGPEAAAGLVPLVVRALELLEQAAVGPAPDSLQVSAQPAEQELRRLREENERLRRELRAGPQEERALLRQLKEVTDRQRDELRAHNRDLRQRGQETEALQEQLQRLLLVNAELRHKLAAMQTQLRAAQDRERERQQPGEAATPQAKERARGQAGRPGHQHGQEPEWATAGAGAPGNPEDPAEAAQQLGRPSEAGQCRFSREEFEQALQERNELKAKVFLLKEELAYFQRELLTDHRVPGLLLEAMKVAVRKQRKKIKAKMLGTPEEAESSEDEAGPWILLSDDKGDHPPPPESKIQSFFGLWYRGKAESSEDETSSPAPSKLGGEEEAQPQSPAPDPPCSALHEHLCLGASAAPEA [I251A] |

From IntAct's records for PubMed 15933719
